Data on one molecule can be found in PMC5638340 (PLoS ONE, 2017).

The test deals with T1, Extracellular domain (ECD) of the human neuronal α9 nAChR (human, UniProt Q9UGM1 23-238).
T1 construct: also called ECD of human α9 nAChR; water-soluble extracellular domain of human α9 nAChR; source: expressed, enzymatically deglycosylated and purified as described [26]
Nature of the test: radioligand binding. Conditions: both partners purified.

T1 sequence (Q9UGM1 23-238): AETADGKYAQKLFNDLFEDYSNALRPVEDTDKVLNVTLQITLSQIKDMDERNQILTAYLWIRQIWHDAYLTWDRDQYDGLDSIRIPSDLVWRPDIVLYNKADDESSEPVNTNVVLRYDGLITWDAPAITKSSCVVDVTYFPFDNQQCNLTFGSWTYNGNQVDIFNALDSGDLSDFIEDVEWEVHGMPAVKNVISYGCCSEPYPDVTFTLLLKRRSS

B1: PLA2 from porcine pancreas (enzyme)
chain: not shown
notes: also called PP PLA2; porcine pancreatic PLA2
As to B1, the IC50 turned out to be 5.5 µM.
